# Test results as given in patent publication CN112300278A (UNIV SHANGHAI JIAOTONG, dated 2021).
# B1: CET06 (antibody, V domains shown)
# VH: QVQLTQSGPGLVKPSETLSQTCTVSGFSLTNYGVHWVRQSPGKGLEWLGVIWSGGNTDYNTPFTSRLTISVDTSKNQVSLKLSSVTSNDTAVYYCARALTYYDYEFAYWGQGTLVTVSA
# VL: DISLTQSPVFLSVTPGEKVESECRASQSIGTNIHWYQQKPDQSPKLLIKYASESISGVPSRFSGSGSGTDFTLTINSVESEDIADYYCQQNNNWPTTFGAGTKLELKR
# notes: the summary and claim 2 give the reverse; also called 抗人EGFR嵌合抗体CET06
# Molecular target: T1, 人EGFR (human epidermal growth factor receptor) (human, UniProt P00533 25-1210)
# T1 construct: whole, on cells; The target is on tumour cell lines that naturally express EGFR; No recombinant EGFR was used; also called 表皮生长因子受体; EGFR分子
# Assay: flow cytometry on MAD-MB-231 cells highly expressing EGFR; 293F supernatant (~20ug antibody), FITC donkey anti-human IgG
binder,measurement,value
B1,binding result,binds
